Laboratory results taken from publication PMC2581436, “Role of Amphipathic Helix of a Herpesviral Protein in Membrane Deformation and T Cell Receptor Downregulation” (PLoS Pathogens, 2008).

Molecular target: the molecule itself
Test: native gel or EMSA; Blue Native PAGE (10% native gel) of whole-cell lysates of 293T cells solubilized with 2.5% Triton X-100; GFP fusions detected by anti-GFP immunoblot; markers aldolase ~160 kDa and BSA 66/132 kDa

B1: GFP-Tip^211-256 (domain or fragment)
chain: ANERNIVKDLKRLENKINVIICLVVVILAVLLLVTVLSILHIGMKS
notes: source: 293T, transiently expressing, detergent-solubilized lysate
stoichiometry N: ~4
